According to US20260297135 (published 2026):
Substitutions are numbered along the chain they refer to. Blank lines part the entries; values can stand above or below the binder they belong to.

How the values were obtained:
[1] = target: T1, integrin αvβ6 (human, UniProt P06756); assay: BLI, at 500 nM
T1 chain 1: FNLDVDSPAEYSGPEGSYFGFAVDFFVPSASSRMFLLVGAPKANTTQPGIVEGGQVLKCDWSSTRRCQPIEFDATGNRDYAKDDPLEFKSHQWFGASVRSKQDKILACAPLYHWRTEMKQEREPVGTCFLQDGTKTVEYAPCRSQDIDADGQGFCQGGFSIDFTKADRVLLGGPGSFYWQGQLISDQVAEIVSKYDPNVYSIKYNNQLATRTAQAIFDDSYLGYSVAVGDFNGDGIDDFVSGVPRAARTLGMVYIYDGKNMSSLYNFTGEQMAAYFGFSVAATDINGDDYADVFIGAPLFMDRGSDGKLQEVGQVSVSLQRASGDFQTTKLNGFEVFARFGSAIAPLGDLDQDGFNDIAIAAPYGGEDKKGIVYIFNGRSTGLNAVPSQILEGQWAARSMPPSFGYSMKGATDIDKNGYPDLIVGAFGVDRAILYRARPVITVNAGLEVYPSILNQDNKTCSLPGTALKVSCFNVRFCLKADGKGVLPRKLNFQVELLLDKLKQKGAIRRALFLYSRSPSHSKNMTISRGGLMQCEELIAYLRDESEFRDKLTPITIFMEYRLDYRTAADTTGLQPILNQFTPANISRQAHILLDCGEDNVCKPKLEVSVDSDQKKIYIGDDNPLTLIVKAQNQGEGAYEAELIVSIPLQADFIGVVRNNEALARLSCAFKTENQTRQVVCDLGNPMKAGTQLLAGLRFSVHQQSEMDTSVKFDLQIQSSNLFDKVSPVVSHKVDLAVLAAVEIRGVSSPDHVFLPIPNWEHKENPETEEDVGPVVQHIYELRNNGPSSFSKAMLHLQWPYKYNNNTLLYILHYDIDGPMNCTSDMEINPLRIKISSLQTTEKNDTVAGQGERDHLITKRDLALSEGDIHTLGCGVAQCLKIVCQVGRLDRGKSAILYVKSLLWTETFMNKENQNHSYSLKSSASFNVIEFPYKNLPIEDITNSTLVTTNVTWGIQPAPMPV
T1 chain 2: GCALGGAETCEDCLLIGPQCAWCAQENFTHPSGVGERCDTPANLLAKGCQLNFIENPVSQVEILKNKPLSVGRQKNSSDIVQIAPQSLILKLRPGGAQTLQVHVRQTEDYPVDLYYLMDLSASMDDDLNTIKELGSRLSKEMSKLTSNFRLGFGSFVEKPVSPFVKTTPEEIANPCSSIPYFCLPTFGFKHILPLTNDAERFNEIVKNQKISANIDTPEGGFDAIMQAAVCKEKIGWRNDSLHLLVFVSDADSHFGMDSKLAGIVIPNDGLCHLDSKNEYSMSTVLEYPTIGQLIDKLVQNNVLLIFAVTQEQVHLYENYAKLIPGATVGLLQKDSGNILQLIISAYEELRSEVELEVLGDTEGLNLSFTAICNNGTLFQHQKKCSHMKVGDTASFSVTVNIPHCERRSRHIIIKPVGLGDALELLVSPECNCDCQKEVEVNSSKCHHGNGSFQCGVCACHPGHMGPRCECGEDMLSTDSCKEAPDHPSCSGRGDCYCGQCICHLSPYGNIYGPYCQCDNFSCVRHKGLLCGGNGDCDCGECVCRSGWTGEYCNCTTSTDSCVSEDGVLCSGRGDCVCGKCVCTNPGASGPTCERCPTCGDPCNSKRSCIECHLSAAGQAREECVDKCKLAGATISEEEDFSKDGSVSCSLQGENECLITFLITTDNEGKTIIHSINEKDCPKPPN

[2] = target: T2, integrin αvβ8 (human, UniProt P06756); assay: BLI
T2 chain 1: T1 chain 1
T2 chain 2: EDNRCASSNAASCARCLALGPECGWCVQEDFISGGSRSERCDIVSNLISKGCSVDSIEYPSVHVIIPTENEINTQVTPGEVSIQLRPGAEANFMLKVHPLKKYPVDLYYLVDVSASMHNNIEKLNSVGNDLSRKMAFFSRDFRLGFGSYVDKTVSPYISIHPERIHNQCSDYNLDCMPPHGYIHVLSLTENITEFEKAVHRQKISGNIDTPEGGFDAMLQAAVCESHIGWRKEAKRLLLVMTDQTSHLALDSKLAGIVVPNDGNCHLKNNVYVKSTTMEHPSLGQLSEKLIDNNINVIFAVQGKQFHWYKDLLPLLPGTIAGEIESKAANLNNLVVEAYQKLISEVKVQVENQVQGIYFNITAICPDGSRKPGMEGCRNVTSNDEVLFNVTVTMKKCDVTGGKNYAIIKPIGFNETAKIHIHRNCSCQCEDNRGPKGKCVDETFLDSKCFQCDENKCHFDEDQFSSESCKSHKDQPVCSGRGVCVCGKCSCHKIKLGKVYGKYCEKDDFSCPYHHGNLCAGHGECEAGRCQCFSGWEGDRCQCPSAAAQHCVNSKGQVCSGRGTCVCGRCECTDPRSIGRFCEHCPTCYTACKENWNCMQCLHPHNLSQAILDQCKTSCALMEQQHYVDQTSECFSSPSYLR

[3] = target: T2, integrin αvβ8; assay: competition, hLAP1
[4] = target: T1, integrin αvβ6; assay: competition, hLAP1
[5] = target: T1, integrin αvβ6; assay: BLI

- binding result [1]: no binding
- Kd [2]: 0.5 nM
B1: B8_BP-LATY (avb8_3_LATY) (designed binder)
chain: TKCVVRFNFRGDLATYALKAVKDHLKKEGPHWNITTHNDDEVYLVVRGIHESDAKRIAKWVESTIPGISVETQCD

- IC50 [3]: 2.68 nM
- Kd [2]: 1.9 nM
- binding result [4]: no binding
B2: B8_BP_dslf (avb8_3) (designed binder)
chain: B1 chain with L13M, T15V

- Kd [5]: 1.13 nM
B3: avb8_12 (LATI) (designed binder)
chain: B1 chain with Y16I
